The target in assay [1] is T1, OmpF porin purified from Salmonella typhi (Salmonella enterica subsp. enterica serovar Typhi), Q56113.
T1 chain: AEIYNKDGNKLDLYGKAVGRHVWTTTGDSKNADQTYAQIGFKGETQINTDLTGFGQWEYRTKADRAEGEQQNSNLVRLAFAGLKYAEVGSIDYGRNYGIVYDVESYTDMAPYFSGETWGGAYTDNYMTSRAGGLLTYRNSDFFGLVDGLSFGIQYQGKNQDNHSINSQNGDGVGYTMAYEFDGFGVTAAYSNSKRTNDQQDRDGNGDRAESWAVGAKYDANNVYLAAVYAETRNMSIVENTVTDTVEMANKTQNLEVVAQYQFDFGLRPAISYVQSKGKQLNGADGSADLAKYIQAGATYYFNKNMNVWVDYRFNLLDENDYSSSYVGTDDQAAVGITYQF
As to the kind of experiment: phage display panning on OmpF, frequency of occurrence among sequenced binders.

For assay [2], the target named is T2, OmpC porin purified from Salmonella typhi (Salmonella enterica subsp. enterica serovar Typhi), A0A0H3.
T2 chain: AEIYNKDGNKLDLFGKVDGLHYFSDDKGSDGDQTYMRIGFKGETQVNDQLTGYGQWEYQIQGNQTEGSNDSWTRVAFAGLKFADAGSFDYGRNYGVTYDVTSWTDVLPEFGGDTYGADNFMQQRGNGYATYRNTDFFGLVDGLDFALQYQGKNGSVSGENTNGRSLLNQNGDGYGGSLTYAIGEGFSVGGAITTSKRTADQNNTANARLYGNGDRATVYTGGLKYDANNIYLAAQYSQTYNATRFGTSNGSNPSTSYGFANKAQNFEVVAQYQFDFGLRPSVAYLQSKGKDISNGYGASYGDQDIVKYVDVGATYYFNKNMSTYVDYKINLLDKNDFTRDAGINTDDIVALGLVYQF
As to the kind of experiment: phage display panning on OmpC, frequency of occurrence among sequenced binders.

Consider FHEFWPT (modifications not checked) [affinity peptide FHEFWPT], for which, in assay [1], the Frequency (fraction of sequenced phage) was determined as 0.4.

In the case of TATYLLD (modifications not checked) [affinity peptide TATYLLD], the Frequency (fraction of sequenced phage) in assay [2] was determined as 0.125.

As to EAKGLIR (modifications not checked) [affinity peptide EAKGLIR], the Frequency (fraction of sequenced phage) in assay [2] stood at 0.75.

With SLSLIQT (modifications not checked) [affinity peptide SLSLIQT], the Frequency (fraction of sequenced phage) in assay [2] came out at 0.125.

In turn, FHENWPS (modifications not checked) [affinity peptide FHENWPS] had a Frequency (fraction of sequenced phage) in assay [1] of 0.6.
